From publication PMC5384750 (PLoS ONE, 2017)
Several values for one entry are separate records, joined by “and”; a condition that tells them apart may be missing. Equal entries are not always repeated.

How the values were obtained:
[1] = target: IDE (S10 extract or rIDE) (Homo sapiens, UniProt P14735); format: in vitro ADME; conditions: 30 ng vp6, 5 μg S10 extract, up to 60 min; Western blot densitometry; at least 3 independent experiments
Method: Fig 9 Multiplication of PTAPPA-motifs stabilizes p6. 20 ng of sp6 or 30 ng of vp6 were incubated either with 5 μg S10 extract (A/B/C) or 2 ng of rIDE (D) for up to 60 min. Degradation efficiency was quantified via densitometric analyses of Western blots. Values represent the arithmetic mean ± SD of at least 3 independent experiments for each setting.
Typically 5 μg S10 were incubated with inhibitor or buffer and 20–100 ng sp6 at 37°C for 30 min. Reactions were stopped by addition of sample buffer and incubation at 95°C for 5 min. Remaining p6 was detected by Western blotting using an anti-p6 rabbit antiserum. Alternatively, 10 ng of BODIPY FL-labeled sp6 (sp6BY) were used as substrate and detected directly in the polyacrylamide gel by fluorescence scanning. In some experiments the amount of p6 was densitometrically quantified with the software AIDA (Raytest). For the in vitro degradation of amyloid-β 10 ng of Aβ-FITC (abcam) were used analogously to sp6BY. For the in vitro degradation of viral p6, VLPs were pelleted and lysed in IDE enzyme buffer (150 mM NaCl, 50 mM Tris pH 7.4, 0.5% (v/v) Triton X-100). The p6 content was estimated by Western blotting using a dilution series of sp6 with known concentrations. Equivalents of 15 ng were used for digestion experiments and subsequently detected by Western blotting. […]

recombinant IDE (rIDE) = target: T1, recombinant IDE (rIDE) (Rattus norvegicus, UniProt P35559); assay: Inhibition of rIDE-mediated degradation of sp6BY; format: biochemical; conditions: 10 ng rIDE, 10 ng sp6BY, 30 min, 37°C; TPEN 1 mM, NEM 1 mM, insulin 100 μg/ml
T1 construct: purchased Calbiochem
Method: Fig 6 IDE is sufficient and required for the in vitro degradation of sp6 and vp6. (A) 10 ng sp6BY were incubated with 5 μg S10 extract from HeLa cells, either untransfected or transfected with control or IDE-specific siRNA, for 0, 10, 30 or 90 min at 37°C. (B) sp6BY was detected by fluorescence emission and quantified. (C) VLP lysates from HEK293T cells were incubated with S10 from siRNA treated cells described in A. Viral proteins were detected as described in Fig 1. (D) Western blot analyses of the S10 extract used in A and C. The membrane was stained with antibodies specific for IDE, HSP70, and β-actin. […] (F) VLP lysates were incubated with 10 ng rIDE for 30 min.
(§1) Typically 5 μg S10 were incubated with inhibitor or buffer and 20–100 ng sp6 at 37°C for 30 min. Reactions were stopped by addition of sample buffer and incubation at 95°C for 5 min. Remaining p6 was detected by Western blotting using an anti-p6 rabbit antiserum. Alternatively, 10 ng of BODIPY FL-labeled sp6 (sp6BY) were used as substrate and detected directly in the polyacrylamide gel by fluorescence scanning. In some experiments the amount of p6 was densitometrically quantified with the software AIDA (Raytest). For the in vitro degradation of amyloid-β 10 ng of Aβ-FITC (abcam) were used analogously to sp6BY. For the in vitro degradation of viral p6, VLPs were pelleted and lysed in IDE enzyme buffer (150 mM NaCl, 50 mM Tris pH 7.4, 0.5% (v/v) Triton X-100). The p6 content was estimated by Western blotting using a dilution series of sp6 with known concentrations. Equivalents of 15 ng were used for digestion experiments and subsequently detected by Western blotting. Experiments carried out with recombinant IDE (Calbiochem) were performed in IDE enzyme buffer. Recombinant FITC-labeled insulin was purchased from Sigma.

[2] = test system: X4-tropic field isolate HIV-1 BK132; assay: HIV-1 replication capacity in activated PBMCs (RT activity, AUC); format: cell-based; conditions: 50 μg/ml insulin or 10 μM 6bK, permanent treatment; PHA-IL2-stimulated PBMCs from 3 different donors (S6 Fig)
Method: For infection, PBMCs were isolated from buffy coats of several blood donors and stimulated with PHA and IL-2 for three days. 1×10^6 PBMCs were incubated overnight with virus preparations equivalent to 0.031 ng of p24, and cell culture supernatant was collected every second or third day post infection (dpi). […] Virus replication was assessed by quantification of the virus-associated RT activity by [^32P]-TTP incorporation, using an oligo(dT)-poly(A) template as described elsewhere. In case of replications with inhibitor treatment, cell viability was determined in parallel by WST-1 assay (Roche) according to the manufacturer’s instructions on the last day of replication. For estimation of the multiplicity of infection (MOI), infectious units of virus stocks were determined by TCID50 end point titration in activated PBMCs. […] The MOI was calculated as the ratio of infectious units per target cells and was ~10^−4 in case of 0.031 ng p24 of input virus.
To determine the replication capacity of HIV-1 following infection with the indicated HIV-1 variants, the respective replication profiles were depicted as diagram (y-axis: RT activity; x-axis: dpi) and the area under curve was calculated and defined as the corresponding replication capacity of the HIV-1 variants. […] Viability of treated cells was assessed on the last day of replication by the water-soluble tetrazolium method. […]

X4-tropic HIV-1NL4-3 wt = assay: as above; format: cell-based; conditions: continuous treatment with 50 μg/ml insulin; PHA-IL2-stimulated PBMCs from 3 different donors; MOI ~10^−4; untreated wt = 100%
Method: (§2) For infection, PBMCs were isolated from buffy coats of several blood donors and stimulated with PHA and IL-2 for three days. 1×10^6 PBMCs were incubated overnight with virus preparations equivalent to 0.031 ng of p24, and cell culture supernatant was collected every second or third day post infection (dpi). […] Virus replication was assessed by quantification of the virus-associated RT activity by [^32P]-TTP incorporation, using an oligo(dT)-poly(A) template as described elsewhere. In case of replications with inhibitor treatment, cell viability was determined in parallel by WST-1 assay (Roche) according to the manufacturer’s instructions on the last day of replication. For estimation of the multiplicity of infection (MOI), infectious units of virus stocks were determined by TCID50 end point titration in activated PBMCs. The number of HIV-1 target cells was estimated to be 50% of total PBMCs as reported in [93]. The MOI was calculated as the ratio of infectious units per target cells and was ~10^−4 in case of 0.031 ng p24 of input virus.
(§3) To determine the replication capacity of HIV-1 following infection with the indicated HIV-1 variants, the respective replication profiles were depicted as diagram (y-axis: RT activity; x-axis: dpi) and the area under curve was calculated and defined as the corresponding replication capacity of the HIV-1 variants. In every experiment the replication capacity of the untreated wt was set to 100% and compared with the indicated variants. Viability of treated cells was assessed on the last day of replication by the water-soluble tetrazolium method. All conditions were not found to diminish cell viability.

R5-tropic HIV-1NL4-3 = assay: as above; format: cell-based; conditions: 50 μg/ml insulin or 10 μM 6bK, permanent treatment; PHA-IL2-stimulated PBMCs from 3 different donors
Method: as §2, §3

[3] = test system: X4-tropic HIV-1NL4-3 3xPTAPPA mutant; assay: as above; format: cell-based; conditions: 50 μg/ml insulin or 10 μM 6bK, permanent treatment; PHA-IL2-stimulated PBMCs from 3 different donors
Method: as §2, §3

[4] = target: T2, insulin-degrading enzyme (IDE) (Homo sapiens, UniProt P14735); assay: Inhibition of Aβ-FITC degradation in S10 extract; format: biochemical; conditions: titration; 10 ng Aβ-FITC, 5 μg S10, 45 min, 37°C; fluorescence
T2 construct: endogenous in cells; host or cells: HeLa cells (cytosolic S10 extract)
Method: as §1, with “Typically 5 μg S10 were incubated with inhibitor or buffer and 20–100 ng sp6 at 37°C for 30 min.” left out
Supplementary file pone.0174254.s003.tif: S3 Fig p6 competes with the in vitro degradation of Aβ. […] Aβ-FITC was detected by measurement of fluorescence excitation. The band marked with * represents Aβ-oligomers and has been described earlier. (B) Band intensities were quantified for four independent experiments and values represent the arithmetic mean ± SD. […]

purified mammalian IDE = conditions: purified mammalian IDE; cited from earlier work

T1 sequence (P35559 whole entry): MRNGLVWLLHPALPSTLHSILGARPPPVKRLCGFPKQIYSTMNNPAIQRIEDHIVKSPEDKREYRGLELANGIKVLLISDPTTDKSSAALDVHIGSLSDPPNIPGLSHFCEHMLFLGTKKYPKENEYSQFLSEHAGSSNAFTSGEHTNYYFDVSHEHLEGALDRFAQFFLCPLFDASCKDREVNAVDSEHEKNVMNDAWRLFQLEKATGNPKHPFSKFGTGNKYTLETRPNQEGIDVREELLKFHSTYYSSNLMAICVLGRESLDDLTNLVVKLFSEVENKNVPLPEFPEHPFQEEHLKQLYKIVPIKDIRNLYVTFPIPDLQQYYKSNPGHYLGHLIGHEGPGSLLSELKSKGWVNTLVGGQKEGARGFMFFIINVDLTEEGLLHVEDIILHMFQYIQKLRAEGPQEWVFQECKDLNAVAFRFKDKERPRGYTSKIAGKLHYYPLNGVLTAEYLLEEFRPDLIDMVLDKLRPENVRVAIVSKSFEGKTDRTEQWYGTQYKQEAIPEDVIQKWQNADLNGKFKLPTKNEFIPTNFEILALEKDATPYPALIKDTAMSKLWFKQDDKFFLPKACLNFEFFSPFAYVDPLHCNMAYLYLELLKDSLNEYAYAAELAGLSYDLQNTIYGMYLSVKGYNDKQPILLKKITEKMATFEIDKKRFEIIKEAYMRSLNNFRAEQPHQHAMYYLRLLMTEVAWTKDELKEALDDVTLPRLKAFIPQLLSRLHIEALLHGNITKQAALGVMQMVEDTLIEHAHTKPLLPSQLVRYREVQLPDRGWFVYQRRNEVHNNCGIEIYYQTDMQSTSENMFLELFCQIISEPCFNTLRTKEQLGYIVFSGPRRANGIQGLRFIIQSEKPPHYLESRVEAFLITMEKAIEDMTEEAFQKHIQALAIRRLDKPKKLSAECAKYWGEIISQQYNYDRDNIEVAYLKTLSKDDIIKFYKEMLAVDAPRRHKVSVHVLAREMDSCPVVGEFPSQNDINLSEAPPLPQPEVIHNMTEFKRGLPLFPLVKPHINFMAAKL

| Compound | degradation kinetics of vp6 mutants in S10 [1] | stabilization of sp6 in the presence of rIDE (recombinant IDE (rIDE)) | effect on replication capacity of HIV-1 BK132 compared with HIV-1NL4-3 [2] | reduction of HIV-1 replication (replication capacity, AUC of RT activity) (X4-tropic HIV-1NL4-3 wt) | effect on replication capacity of R5-tropic HIV-1 (wt and 3xPTAPPA) (R5-tropic HIV-1NL4-3) | effect on replication capacity of the IDE-insensitive 3xPTAPPA mutant [3] | effect on degradation of Aβ-FITC [4] | Km (purified mammalian IDE) [nM] | kcat (purified mammalian IDE) [min⁻¹] |
| --- | --- | --- | --- | --- | --- | --- | --- | --- | --- |
| CC[C@H](C)[C@H](NC(=O)[C@@H]1CCCN1C(=O)[C@H](CCC(=O)O)NC(=O)[C@H](CCC(N)=O)NC(=O)[C@H](CCCCN)NC(=O)[C@H](CCC(N)=O)NC(=O)[C@H](CO)NC(=O)[C@@H]1CCCN1C(=O)[C@@H](NC(=O)[C@@H](NC(=O)[C@@H](NC(=O)[C@H](CCC(=O)O)NC(=O)[C@H](CCC(=O)O)NC(=O)CNC(=O)[C@H](Cc1ccccc1)NC(=O)[C@H](CCCNC(=N)N)NC(=O)[C@H](Cc1ccccc1)NC(=O)[C@H](CO)NC(=O)[C@H](CCC(=O)O)NC(=O)[C@H](C)NC(=O)[C@@H]1CCCN1C(=O)[C@@H]1CCCN1C(=O)[C@H](C)NC(=O)[C@@H](NC(=O)[C@H](CC(C)C)NC(=O)[C@H](C)NC(=O)[C@@H]1CCCN1C(=O)[C@@H]1CCCN1C(=O)[C@H](C)NC(=O)[C@@H](NC(=O)[C@@H]1CCCN1C(=O)[C@H](CCC(=O)O)NC(=O)[C@@H]1CCCN1C(=O)[C@H](CCCNC(=N)N)NC(=O)[C@H](CO)NC(=O)[C@H](CCC(N)=O)NC(=O)[C@@H](N)CC(C)C)[C@@H](C)O)[C@@H](C)O)[C@@H](C)O)[C@@H](C)O)[C@@H](C)O)C(=O)N[C@@H](CC(=O)O)C(=O)N[C@@H](CCCCN)C(=O)N[C@@H](CCC(=O)O)C(=O)N[C@@H](CC(C)C)C(=O)N[C@@H](Cc1ccc(O)cc1)C(=O)N1CCC[C@H]1C(=O)N[C@@H](CC(C)C)C(=O)N[C@@H](C)C(=O)N[C@@H](CO)C(=O)N[C@@H](CC(C)C)C(=O)N[C@@H](CCCNC(=N)N)C(=O)N[C@@H](CO)C(=O)N[C@@H](CC(C)C)C(=O)N[C@@H](Cc1ccccc1)C(=O)NCC(=O)N[C@@H](CO)C(=O)N[C@@H](CC(=O)O)C(=O)N1CCC[C@H]1C(=O)N[C@@H](CO)C(=O)N[C@@H](CO)C(=O)N[C@@H](CCC(N)=O)C(=O)O [PL] | comparable to their 2x and 3x counterparts |  |  |  |  |  |  |  |  |
| insulin |  | stabilized sp6 | same impact | ~ 50% and 50% | insensitive to exogenous insulin | insensitive to insulin treatment | resulted in a stabilization of Aβ-FITC | 66 | 1.5 |
